{
  "source": "patent US20200325187A1",
  "about": "(Genentech, published 2020)",
  "binders": {"B1": {"name": "VEGF_CKP9.54.90 (designed binder)", "chain": "GCNIMLPFWGCGRDFECLAGCVCQYYQSCG"}},
  "key": {"[1]": {"target": "NGF (human, UniProt P01138 122-241, limits assumed)", "sequence (P01138 122-241 limits assumed)": "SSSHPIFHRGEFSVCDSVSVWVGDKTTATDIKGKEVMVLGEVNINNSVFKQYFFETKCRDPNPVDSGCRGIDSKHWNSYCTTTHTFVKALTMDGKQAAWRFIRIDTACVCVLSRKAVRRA", "assay": "competition ELISA: NGF coated, constant NGFR receptor, peptide titrated"}, "[2]": {"target": "T1, hVEGF-A (8-109) (human, UniProt P15692 214-315)", "T1 sequence (looked up)": "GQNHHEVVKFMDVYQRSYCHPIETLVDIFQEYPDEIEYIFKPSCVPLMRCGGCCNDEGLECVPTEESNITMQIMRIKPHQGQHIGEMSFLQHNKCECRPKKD", "assay": "competition ELISA: VEGF-A (8-109) coated, constant Flt-1 receptor, peptide titrated; blocked ligand: Flt-1", "description": "Binding specificity of each peptide was established by competition ELISA. […] After blocking with block buffer (PBS with 0.5% BSA and 0.05% TWEEN®20) for 2 hours at room temperature, the receptor-Fc fusions or biotinylated receptors were serially diluted using assay buffer (PBS with 0.5% BSA and 0.05% TWEEN®20) and incubated for 1 hour at room temperature. […] Competition ELISA was conducted in an identical fashion as described above except after blocking, a mixture of serially diluted peptide containing a constant concentration of receptor-Fc fusion or biotinylated receptor (concentration of receptor was set to EC₆₀) was added and incubated for 1 hour. All recombinant human proteins and antibodies were purchased from R &D Systems (Minneapolis, Minn.)."}, "[3]": {"target": "T2, hVEGF-A F17A/M81A (human, UniProt P15692-4 34-135, F17A; M81A)", "T2 construct": "positions probably counted on the mature protein", "T2 sequence (looked up)": "T1 sequence (looked up) with F10A, M74A", "assay": "site-directed mutants, SPR; no numbers printed for this mutant"}, "[4]": {"target": "T1, hVEGF-A (8-109)", "assay": "spot phage ELISA", "procedure,_shortened": "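Phage clones from four selection rounds were grown overnight at 37 °C with M13-KO7 helper phage. Bound phage was detected with anti-M13-HRP and TMB, with binding to BSA alone run in parallel as background.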"}, "[5]": {"target": "T3, rat VEGF-A (rat, UniProt P16612-2 27-190, limits assumed)", "T3 construct": "also called rVEGF", "T3 sequence (looked up)": "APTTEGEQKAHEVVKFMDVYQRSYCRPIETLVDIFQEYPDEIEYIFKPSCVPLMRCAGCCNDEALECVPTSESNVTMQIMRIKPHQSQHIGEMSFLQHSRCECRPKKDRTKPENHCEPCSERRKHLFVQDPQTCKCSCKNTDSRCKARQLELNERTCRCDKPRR", "assay": "SPR", "description": "(§1) Depending on the format of the assay either a streptavidin sensor (SA) or a dextran-coated (CM5) sensor was utilized as described below.\n(§2) Reaction was then quenched by addition of 10 molar excess of Glycine pH 8.0 and the sample was buffer exchanged into PBS using an Amicon 0.5 mL 3000 MWCO ultra-centrifugal filters (EMD Millipore). The biotinylation state of the protein was verified by LC-MS analysis. Biotinylated VEGF-A was then captured on the surface until a resonance unit (RU) signal of about ˜400. For immobilization of VEGF-A on CM5 sensor, the surface was first activated with a mixture of N-ethyl-N′-(3-dimethylaminopropyl)carbodiimide hydrochloride and N-hydroxysuccinimide (EDC/NHS) according to the supplier instructions. VEGF-A was then diluted into coupling buffer (0.1 M Acetate Buffer, pH 5.0) and injected until the signal reached about ˜400 RU followed by a wash with 1 M ethanolamine pH 8.0 to quench remaining activated sites."}, "[6]": {"target": "T4, mouse VEGF-A 164 (mouse, UniProt Q00731-2 27-190)", "T4 construct": "also called mouse 164", "T4 sequence (looked up)": "T3 sequence (looked up) with A10S, V14I, V75I", "assay": "SPR", "description": "as §1, §2"}, "[7]": {"target": "T1, hVEGF-A (8-109)", "assay": "SPR", "description": "as §1, §2"}, "[8]": {"target": "T5, rabbit VEGF-A (rabbit, UniProt G1T1L9 1-398)", "T5 sequence": "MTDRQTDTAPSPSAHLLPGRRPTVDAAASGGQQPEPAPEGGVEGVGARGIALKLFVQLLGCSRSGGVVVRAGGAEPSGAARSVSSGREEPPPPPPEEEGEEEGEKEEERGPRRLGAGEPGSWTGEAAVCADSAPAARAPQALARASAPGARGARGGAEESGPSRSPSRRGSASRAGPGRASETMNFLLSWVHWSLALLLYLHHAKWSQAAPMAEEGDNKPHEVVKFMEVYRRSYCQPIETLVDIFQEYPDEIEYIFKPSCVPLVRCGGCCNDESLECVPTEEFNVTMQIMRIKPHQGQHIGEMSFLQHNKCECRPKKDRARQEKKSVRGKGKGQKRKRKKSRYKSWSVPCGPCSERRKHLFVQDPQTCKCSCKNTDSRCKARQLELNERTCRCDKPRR", "assay": "SPR", "description": "as §1, §2"}, "[9]": {"target": "human VEGF-A 165 (human, UniProt P15692-4 27-191)", "sequence (P15692 other isoform, or with tags, fused parts or gaps limits assumed)": "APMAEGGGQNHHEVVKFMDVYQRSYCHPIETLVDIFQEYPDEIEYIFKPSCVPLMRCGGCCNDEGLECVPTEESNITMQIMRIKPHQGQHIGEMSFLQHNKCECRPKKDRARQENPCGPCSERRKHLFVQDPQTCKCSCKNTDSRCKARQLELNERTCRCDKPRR", "assay": "SPR", "description": "as §1, §2"}, "[10]": {"target": "T6, VEGF-D (human, UniProt O43915 93-201, limits assumed)", "T6 sequence (looked up)": "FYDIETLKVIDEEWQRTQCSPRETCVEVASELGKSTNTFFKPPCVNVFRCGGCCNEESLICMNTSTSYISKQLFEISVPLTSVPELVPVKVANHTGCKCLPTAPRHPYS", "assay": "competition ELISA: VEGF-D coated, constant Flt-4 receptor, peptide titrated"}, "[11]": {"target": "T7, VEGF-B (human, UniProt P49765-2 22-188, limits assumed)", "T7 sequence (looked up)": "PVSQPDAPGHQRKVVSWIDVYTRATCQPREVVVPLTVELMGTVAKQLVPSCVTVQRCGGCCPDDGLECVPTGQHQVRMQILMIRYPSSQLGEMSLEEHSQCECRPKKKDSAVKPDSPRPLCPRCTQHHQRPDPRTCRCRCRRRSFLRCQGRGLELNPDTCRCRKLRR", "assay": "competition ELISA: VEGF-B coated, constant Flt-1 receptor, peptide titrated"}},
  "note": "Numbering of substitutions follows the chain as printed.",
  "data": [
    {"binder": "B1", "values": [
      {"measurement": "binding result", "setting": "[1]", "value": "no binding (tested: 5 µM)"},
      {"measurement": "IC50 (read off the curve)", "setting": "[2]", "value": "~70", "unit": "nM"},
      {"measurement": "binding result", "setting": "[3]", "value": "binds"},
      {"measurement": "ELISA", "setting": "[4]", "value": 2.3},
      {"measurement": "S/N vs BSA", "setting": "[4]", "value": 29.5},
      {"measurement": "Kd", "setting": "[5]", "value": 0.9, "unit": "nM"},
      {"measurement": "Kd", "setting": "[6]", "value": 1.31, "unit": "nM"},
      {"measurement": "Kd", "setting": "[7]", "value": 0.87, "unit": "nM"},
      {"measurement": "Kd", "setting": "[8]", "value": 1.14, "unit": "nM"},
      {"measurement": "Kd", "setting": "[9]", "value": 0.89, "unit": "nM"},
      {"measurement": "binding result", "setting": "[10]", "value": "no binding (tested: 5 µM)"},
      {"measurement": "binding result", "setting": "[11]", "value": "no binding (tested: 5 µM)"}
    ]}
  ]
}
